Changes are numbered by the printed parent chain.
Tests used:
Assay in all cases: cell_activity
[1] = target: T1, ER4.3 (in cell) E203W,Q214V,G215R,H216P,N217T (Homo sapiens) (UniProt P03372); settings: HepG2, 10 nM OHT
T1 sequence: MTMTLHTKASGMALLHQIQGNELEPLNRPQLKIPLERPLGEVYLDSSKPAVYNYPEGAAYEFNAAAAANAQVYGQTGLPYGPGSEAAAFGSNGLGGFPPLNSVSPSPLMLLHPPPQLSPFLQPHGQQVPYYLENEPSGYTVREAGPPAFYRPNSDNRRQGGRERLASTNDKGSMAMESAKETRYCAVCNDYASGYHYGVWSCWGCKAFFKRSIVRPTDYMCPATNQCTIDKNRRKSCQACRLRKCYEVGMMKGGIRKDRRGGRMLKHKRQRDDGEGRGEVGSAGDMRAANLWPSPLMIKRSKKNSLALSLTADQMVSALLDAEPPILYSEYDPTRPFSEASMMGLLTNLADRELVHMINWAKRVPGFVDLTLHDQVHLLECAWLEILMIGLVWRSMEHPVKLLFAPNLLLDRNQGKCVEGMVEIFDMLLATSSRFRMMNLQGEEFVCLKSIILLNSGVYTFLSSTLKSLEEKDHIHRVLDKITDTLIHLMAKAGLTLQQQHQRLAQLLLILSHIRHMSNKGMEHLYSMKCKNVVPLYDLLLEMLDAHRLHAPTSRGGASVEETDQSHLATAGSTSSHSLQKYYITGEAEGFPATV

[2] = target: T2, ER3M (in cell) E203W,Q214A,H216G (Homo sapiens) (UniProt P03372); settings: HepG2, 10 nM OHT
T2 sequence: T1 sequence with V214A, R215G, P216G, T217N

[3] = target: T3, ERα wild type (in cell) (Homo sapiens) (UniProt P03372); settings: HepG2, OHT
T3 sequence: T1 sequence with W203E, V214Q, R215G, P216H, T217N

“GCTAGCGGGCCACTGTGGCCCTGACAACTAGTAAGTCGGGCCACTGTGGCCCGACGTACTATCTCGAGGGGCCACTGTGGCCCTAGAGCTGCAGGTATCGGGCCACTGTGGCCCTAGTTCATTAAAGCTTGGGCCACTGTGGCCCATCAAGATATCGAGATGGGCCACTGTGGCCCATCGACAGGAATTCACGGGCCACTGTGGCCCATCAAGATATCGAGATGGGCCACTGTGGCCCATCGACTCTAGA (double strand) [ATL8/PAL]” gave an activity (fold induction) [1] of 172, an activity (fold induction) [2] of 117 and an activity (fold induction) [3] of 52.
